Test [1] has as its target T1, bacterially expressed recombinant p27 (full–length p27) (human, UniProt P46527 1-198).
T1 construct: p27^Kip1 (CDKN1B), human, full length; No tag is named for the full-length protein; also called purified p27; source: bacteria, purified by heat treatment (95 °C, ultracentrifugation)
The experiment in a line: pull-down; GST fusion proteins bound on glutathione Sepharose beads incubated for 2 h at 4 °C with purified bacterial p27, p27 mutants or p27 fragments; extensive washing; bound p27 detected by Western blot. The following applies: both partners purified. A general note: In western blotting, separated proteins are transferred to a membrane and probed.

Test [2] has as its target T2, GST–hIC EpoR (273–508aa), cytoplasmic domain of human EpoR (human, UniProt P19235 273-508).
T2 construct: also called GST–EpoR; source: E. coli BL21, purified on glutathione Sepharose beads
T2 sequence (looked up): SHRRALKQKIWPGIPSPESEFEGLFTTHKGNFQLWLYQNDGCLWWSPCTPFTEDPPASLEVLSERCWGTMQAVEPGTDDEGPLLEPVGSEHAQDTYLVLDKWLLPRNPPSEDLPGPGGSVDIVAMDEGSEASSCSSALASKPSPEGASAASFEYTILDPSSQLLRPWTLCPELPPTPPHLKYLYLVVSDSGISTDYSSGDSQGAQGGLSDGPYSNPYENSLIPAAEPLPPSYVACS
The description is as above. The settings on record: both partners purified.

Experimental findings from publication PMC10340229, “EpoR Activation Stimulates Erythroid Precursor Proliferation by Inducing Phosphorylation of Tyrosine-88 of the CDK-Inhibitor p27^Kip1” (Cells, 2023) are described below.

B1: GST–hIC EpoR N (273–433aa) (domain or fragment, human, UniProt P19235 273-433, looked up)
chain: SHRRALKQKIWPGIPSPESEFEGLFTTHKGNFQLWLYQNDGCLWWSPCTPFTEDPPASLEVLSERCWGTMQAVEPGTDDEGPLLEPVGSEHAQDTYLVLDKWLLPRNPPSEDLPGPGGSVDIVAMDEGSEASSCSSALASKPSPEGASAASFEYTILDPSS
notes: also called N–terminal truncated cytoplasmic domain of EpoR; source: E. coli BL21, purified on glutathione Sepharose beads
On to B1, for which, in test [1], the binding result is given as “binds”.

B2: p27 ΔSH3 (amino acids 94, 95, 96 PPK to GCA) (natural protein, human, UniProt P46527 1-198, looked up)
chain: MSNVRVSNGSPSLERMDARQAEHPKPSACRNLFGPVDHEELTRDLEKHCRDMEEASQRKWNFDFQNHKPLEGKYEWQEVEKGSLPEFYYRPPRGCAGACKVPAQESQDVSGSRPAAPLIGAPANSEDTHLVDPKTDPSDSQTGLAEQCAGIRKRPATDDSSTQNKRANRTEENVSDGSPNAGSVEQTPKKPGLRRRQT
notes: p27^Kip1 (CDKN1B), human, with point mutations in the proline-rich region; also called p27 ∆SH3; ΔSH3 mutant; source: bacteria, purified by heat treatment
In the case of B2, in test [2], the binding result was “binds”.

B3: p27 CK– (R30A, L32A, F62A, F64A) (natural protein, human, UniProt P46527 1-198, looked up)
chain: MSNVRVSNGSPSLERMDARQAEHPKPSACANAFGPVDHEELTRDLEKHCRDMEEASQRKWNADAQNHKPLEGKYEWQEVEKGSLPEFYYRPPRPPKGACKVPAQESQDVSGSRPAAPLIGAPANSEDTHLVDPKTDPSDSQTGLAEQCAGIRKRPATDDSSTQNKRANRTEENVSDGSPNAGSVEQTPKKPGLRRRQT
notes: p27^Kip1 (CDKN1B), human, with four point mutations; source: bacteria, purified by heat treatment
For B3, the binding result in test [2] was “binds”.
